Molecular target: T1, human FcRn-β2M complex (human FcRn extracellular region with His-tagged human β2M) (human, UniProt P55899 24-297; P61769 21-119, randomly biotinylated in the ELISA (biotin-hFcRn))
T1 construct: Purified by Ni-Sepharose and Superdex200; Used biotinylated in the ELISA and as analyte in Biacore; also called FcRn antigen; hFcRn; not shown: His tag
Assay: ELISA, biotin-hFcRn on NeutrAvidin plate, pH 6.0

T1 sequence (P55899 24-297 limits assumed, chain 1 of 2): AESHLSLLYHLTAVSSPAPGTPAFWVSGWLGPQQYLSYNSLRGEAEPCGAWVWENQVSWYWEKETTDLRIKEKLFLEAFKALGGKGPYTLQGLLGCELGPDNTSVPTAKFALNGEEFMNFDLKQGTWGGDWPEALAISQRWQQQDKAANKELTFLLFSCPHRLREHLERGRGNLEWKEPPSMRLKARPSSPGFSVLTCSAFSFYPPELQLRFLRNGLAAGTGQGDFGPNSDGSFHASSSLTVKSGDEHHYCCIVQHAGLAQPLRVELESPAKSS
T1 sequence (P61769 21-119 limits assumed, chain 2 of 2): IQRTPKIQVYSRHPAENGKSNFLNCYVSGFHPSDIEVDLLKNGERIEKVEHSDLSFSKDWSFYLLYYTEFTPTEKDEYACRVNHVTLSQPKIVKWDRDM

B1: Argx-113 (other)
chain: DKTHTCPPCPAPELLGGPSVFLFPPKPKDTLYITREPEVTCVVVDVSHEDPEVKFNWYVDGVEVHNAKTKPREEQYNSTYRVVSVLTVLHQDWLNGKEYKCKVSNKALPAPIEKTISKAKGQPREPQVYTLPPSRDELTKNQVSLTCLVKGFYPSDIAVEWESNGQPENNYKTTPPVLDSDGSFFLYSKLTVDKSRWQQGNVFSCSVMHEALKFHYTQKSLSLSPGK
Question: For B1, which EC50 is on record?
Answer: 0.9 µg/mL
